To fix the notation:
B1: 3X-Flag tagged full length human MIDN^WT (midnolin, 468-aa isoform) (natural protein)
chain: MEPQPGGARSCRRGAPGGACELGPAAEAAPMSLAIHSTTGTRYDLAVPPDETVEGLRKRLSQRLKVPKERLALLHKDTRLSSGKLQEFGVGDGSKLTLVPTVEAGLMSQASRPEQSVMQALESLTETQVSDFLSGRSPLTLALRVGDHMMFVQLQLAAQHAPLQHRHVLAAAAAAAAARGDPSIASPVSSPCRPVSSAARVPPVPTSPSPASPSPITAGSFRSHAASTTCPEQMDCSPTASSSASPGASTTSTPGASPAPRSRKPGAVIESFVNHAPGVFSGTFSGTLHPNCQDSSGRPRRDIGTILQILNDLLSATRHYQGMPPSLAQLRCHAQCSPASPAPDLAPRTTSCEKLTAAPSASLLQGQSQIRMCKPPGDRLRQTENRATRCKVERLQLLLQQKRLRRKARRDARGPYHWSPSRKAGRSDSSSSGGGGSPSEASGLGLDFEDSVWKPEVNPDIKSEFVVA
B2: 3X-Flag tagged full length human MIDN L399K (purified) (natural protein)
chain: MEPQPGGARSCRRGAPGGACELGPAAEAAPMSLAIHSTTGTRYDLAVPPDETVEGLRKRLSQRLKVPKERLALLHKDTRLSSGKLQEFGVGDGSKLTLVPTVEAGLMSQASRPEQSVMQALESLTETQVSDFLSGRSPLTLALRVGDHMMFVQLQLAAQHAPLQHRHVLAAAAAAAAARGDPSIASPVSSPCRPVSSAARVPPVPTSPSPASPSPITAGSFRSHAASTTCPEQMDCSPTASSSASPGASTTSTPGASPAPRSRKPGAVIESFVNHAPGVFSGTFSGTLHPNCQDSSGRPRRDIGTILQILNDLLSATRHYQGMPPSLAQLRCHAQCSPASPAPDLAPRTTSCEKLTAAPSASLLQGQSQIRMCKPPGDRLRQTENRATRCKVERLQLLKQQKRLRRKARRDARGPYHWSPSRKAGRSDSSSSGGGGSPSEASGLGLDFEDSVWKPEVNPDIKSEFVVA
B3: 3X-Flag tagged full length human MIDN N385A (purified) (natural protein)
chain: MEPQPGGARSCRRGAPGGACELGPAAEAAPMSLAIHSTTGTRYDLAVPPDETVEGLRKRLSQRLKVPKERLALLHKDTRLSSGKLQEFGVGDGSKLTLVPTVEAGLMSQASRPEQSVMQALESLTETQVSDFLSGRSPLTLALRVGDHMMFVQLQLAAQHAPLQHRHVLAAAAAAAAARGDPSIASPVSSPCRPVSSAARVPPVPTSPSPASPSPITAGSFRSHAASTTCPEQMDCSPTASSSASPGASTTSTPGASPAPRSRKPGAVIESFVNHAPGVFSGTFSGTLHPNCQDSSGRPRRDIGTILQILNDLLSATRHYQGMPPSLAQLRCHAQCSPASPAPDLAPRTTSCEKLTAAPSASLLQGQSQIRMCKPPGDRLRQTEARATRCKVERLQLLLQQKRLRRKARRDARGPYHWSPSRKAGRSDSSSSGGGGSPSEASGLGLDFEDSVWKPEVNPDIKSEFVVA
B4: 3X-Flag tagged full length human MIDN R403A (purified) (natural protein)
chain: MEPQPGGARSCRRGAPGGACELGPAAEAAPMSLAIHSTTGTRYDLAVPPDETVEGLRKRLSQRLKVPKERLALLHKDTRLSSGKLQEFGVGDGSKLTLVPTVEAGLMSQASRPEQSVMQALESLTETQVSDFLSGRSPLTLALRVGDHMMFVQLQLAAQHAPLQHRHVLAAAAAAAAARGDPSIASPVSSPCRPVSSAARVPPVPTSPSPASPSPITAGSFRSHAASTTCPEQMDCSPTASSSASPGASTTSTPGASPAPRSRKPGAVIESFVNHAPGVFSGTFSGTLHPNCQDSSGRPRRDIGTILQILNDLLSATRHYQGMPPSLAQLRCHAQCSPASPAPDLAPRTTSCEKLTAAPSASLLQGQSQIRMCKPPGDRLRQTENRATRCKVERLQLLLQQKALRRKARRDARGPYHWSPSRKAGRSDSSSSGGGGSPSEASGLGLDFEDSVWKPEVNPDIKSEFVVA
B5: 3X-Flag tagged full length human MIDN L395K (purified) (natural protein)
chain: MEPQPGGARSCRRGAPGGACELGPAAEAAPMSLAIHSTTGTRYDLAVPPDETVEGLRKRLSQRLKVPKERLALLHKDTRLSSGKLQEFGVGDGSKLTLVPTVEAGLMSQASRPEQSVMQALESLTETQVSDFLSGRSPLTLALRVGDHMMFVQLQLAAQHAPLQHRHVLAAAAAAAAARGDPSIASPVSSPCRPVSSAARVPPVPTSPSPASPSPITAGSFRSHAASTTCPEQMDCSPTASSSASPGASTTSTPGASPAPRSRKPGAVIESFVNHAPGVFSGTFSGTLHPNCQDSSGRPRRDIGTILQILNDLLSATRHYQGMPPSLAQLRCHAQCSPASPAPDLAPRTTSCEKLTAAPSASLLQGQSQIRMCKPPGDRLRQTENRATRCKVERKQLLLQQKRLRRKARRDARGPYHWSPSRKAGRSDSSSSGGGGSPSEASGLGLDFEDSVWKPEVNPDIKSEFVVA
B6: 3X-Flag tagged full length human MIDN K391A (purified) (natural protein)
chain: MEPQPGGARSCRRGAPGGACELGPAAEAAPMSLAIHSTTGTRYDLAVPPDETVEGLRKRLSQRLKVPKERLALLHKDTRLSSGKLQEFGVGDGSKLTLVPTVEAGLMSQASRPEQSVMQALESLTETQVSDFLSGRSPLTLALRVGDHMMFVQLQLAAQHAPLQHRHVLAAAAAAAAARGDPSIASPVSSPCRPVSSAARVPPVPTSPSPASPSPITAGSFRSHAASTTCPEQMDCSPTASSSASPGASTTSTPGASPAPRSRKPGAVIESFVNHAPGVFSGTFSGTLHPNCQDSSGRPRRDIGTILQILNDLLSATRHYQGMPPSLAQLRCHAQCSPASPAPDLAPRTTSCEKLTAAPSASLLQGQSQIRMCKPPGDRLRQTENRATRCAVERLQLLLQQKRLRRKARRDARGPYHWSPSRKAGRSDSSSSGGGGSPSEASGLGLDFEDSVWKPEVNPDIKSEFVVA
B7: 3X-Flag tagged full length human MIDN R406A (purified) (natural protein)
chain: MEPQPGGARSCRRGAPGGACELGPAAEAAPMSLAIHSTTGTRYDLAVPPDETVEGLRKRLSQRLKVPKERLALLHKDTRLSSGKLQEFGVGDGSKLTLVPTVEAGLMSQASRPEQSVMQALESLTETQVSDFLSGRSPLTLALRVGDHMMFVQLQLAAQHAPLQHRHVLAAAAAAAAARGDPSIASPVSSPCRPVSSAARVPPVPTSPSPASPSPITAGSFRSHAASTTCPEQMDCSPTASSSASPGASTTSTPGASPAPRSRKPGAVIESFVNHAPGVFSGTFSGTLHPNCQDSSGRPRRDIGTILQILNDLLSATRHYQGMPPSLAQLRCHAQCSPASPAPDLAPRTTSCEKLTAAPSASLLQGQSQIRMCKPPGDRLRQTENRATRCKVERLQLLLQQKRLRAKARRDARGPYHWSPSRKAGRSDSSSSGGGGSPSEASGLGLDFEDSVWKPEVNPDIKSEFVVA

The first experiment has as its target HA-tagged MIDN^△α-Helix-C (human) (UniProt Q504T8). Briefly: co-IP.
In turn, “Flag-tagged RPN11 (from UniProt O00487 1-310) (enzyme)” gave a reduction of binding relative to WT MIDN of 60%.

In another experiment the target is human 26S proteasome (proteasome holoenzyme: 20S core particle with 19S regulatory particle) (human, UniProt P35998;P62191;P43686;P62333;P17980;P62195;Q13200;Q99460;O43242;O00232;O00231;Q15 …). As to the kind of experiment: pull-down.
Take B1: the binding result is “binds”.

As to B2, the binding result is given as “binds”. In the case of B3, the binding result is reported as “binds”.

Consider B4, for which the binding result is on record as “binds”.

On to B5, for which the binding result is reported as “binds”.

Turning to B6, the binding result is reported as “binds”. Same read-out and setting: in the case of B7 it was “binds”.

These data come from doi:10.1101/2025.03.04.641557 (bioRxiv, 2025).
